Results reported in patent US20220119549A1 (TAVOTEK BIOTHERAPEUTICS HONG KONG, published 2022).
Numbering of substitutions follows the chain as printed. In names and notes the source's numbering stands.

B1: TAVO186187 (antibody, human IgG1, kappa)
heavy: GIVEECCFRSCDLALLETYCAGGGGSGPLGVRGGGGSEVQLVESGGGLVQPGGSLRLSCAASGFDFADYAMHWVRQAPGKGLEWVSAITWNGGHTDYADSVKGRFTISRDNSKNTLYLQMNSLRAEDTAVYYCAKVSYLSTASSLDYWGQGTLVTVSSASTKGPSVFPLAPSSKSTSGGTAALGCLVKDYFPEPVTVSWNSGALTSGVHTFPAVLQSSGLYSLSSVVTVPSSSLGTQTYICNVNHKPSNTKVDKKVEPKSCDKTHTCPPCPAPPAAGPSVFLFPPKPKDTLMISRTPEVTCVVVDVSHEDPEVKFNWYVDGVEVHNAKTKPREEQYNSTYRVVSVLTVLHQDWLNGKEYKCKVSNKALPAPIEKTISKAKGQPREPQVYTLPPSRDELTKNQVSLTCLVKGFYPSDIAVEWESNGQPENNYKTTPPVLDSDGSFLLYSKLTVDKSRWQQGNVFSCSVLHEALHSHYTQKSLSLSPGK
light: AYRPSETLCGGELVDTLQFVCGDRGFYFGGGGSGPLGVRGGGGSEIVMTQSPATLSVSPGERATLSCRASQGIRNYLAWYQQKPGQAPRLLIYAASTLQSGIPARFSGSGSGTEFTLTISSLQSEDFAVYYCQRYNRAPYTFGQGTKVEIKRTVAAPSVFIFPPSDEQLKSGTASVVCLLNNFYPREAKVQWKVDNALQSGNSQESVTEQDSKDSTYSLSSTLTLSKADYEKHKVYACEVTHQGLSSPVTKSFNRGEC
notes: Undigested; IGF2 A chain - MMP2/9 linker (GPLGVR) - heavy chain (ADA-H2X, IgG1 Fc mutant); IGF2 B chain - linker - light chain (ADA-L1); also called anti-TNFα shielded antibody with IGF2-based masking domain; EAC186/EAC187
B2: TAVO190191 (antibody, human IgG1, kappa)
heavy: B1 heavy with G27P, P28L, L29G, G30L, V31A, R32G
light: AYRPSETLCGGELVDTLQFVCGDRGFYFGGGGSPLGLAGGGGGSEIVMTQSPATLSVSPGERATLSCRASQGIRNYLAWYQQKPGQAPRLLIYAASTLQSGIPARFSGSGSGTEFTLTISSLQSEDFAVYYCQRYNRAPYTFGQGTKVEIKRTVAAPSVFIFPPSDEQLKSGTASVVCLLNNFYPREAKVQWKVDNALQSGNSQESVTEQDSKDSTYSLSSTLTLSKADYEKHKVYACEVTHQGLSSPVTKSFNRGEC
notes: Undigested; Native IGF2 A and B chains, MMP2/9 substrate PLGLAG; also called anti-TNFα shielded antibody with IGF2-based masking domain; EAC190/EAC191
B3: TAVO188189 (antibody, human IgG1, kappa)
heavy: B1 heavy with G27P, P28L, L29G, G30L, V31A
light: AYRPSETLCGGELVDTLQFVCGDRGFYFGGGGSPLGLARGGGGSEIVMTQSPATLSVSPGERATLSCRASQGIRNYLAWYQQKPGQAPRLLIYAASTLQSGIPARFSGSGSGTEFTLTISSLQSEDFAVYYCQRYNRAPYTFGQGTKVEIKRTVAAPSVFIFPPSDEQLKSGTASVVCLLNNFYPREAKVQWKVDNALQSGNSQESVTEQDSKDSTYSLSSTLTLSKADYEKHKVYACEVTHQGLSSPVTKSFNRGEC
notes: Undigested; MMP2/9 substrate PLGLAR; also called anti-TNFα shielded antibody with IGF2-based masking domain; EAC188/EAC189
B4: TAVO196197 (antibody, human IgG1, kappa)
heavy: GIVEECCFRSCDLALLETYCAGGGGSRPKPVEVWRKGGGGSEVQLVESGGGLVQPGGSLRLSCAASGFDFADYAMHWVRQAPGKGLEWVSAITWNGGHTDYADSVKGRFTISRDNSKNTLYLQMNSLRAEDTAVYYCAKVSYLSTASSLDYWGQGTLVTVSSASTKGPSVFPLAPSSKSTSGGTAALGCLVKDYFPEPVTVSWNSGALTSGVHTFPAVLQSSGLYSLSSVVTVPSSSLGTQTYICNVNHKPSNTKVDKKVEPKSCDKTHTCPPCPAPPAAGPSVFLFPPKPKDTLMISRTPEVTCVVVDVSHEDPEVKFNWYVDGVEVHNAKTKPREEQYNSTYRVVSVLTVLHQDWLNGKEYKCKVSNKALPAPIEKTISKAKGQPREPQVYTLPPSRDELTKNQVSLTCLVKGFYPSDIAVEWESNGQPENNYKTTPPVLDSDGSFLLYSKLTVDKSRWQQGNVFSCSVLHEALHSHYTQKSLSLSPGK
light: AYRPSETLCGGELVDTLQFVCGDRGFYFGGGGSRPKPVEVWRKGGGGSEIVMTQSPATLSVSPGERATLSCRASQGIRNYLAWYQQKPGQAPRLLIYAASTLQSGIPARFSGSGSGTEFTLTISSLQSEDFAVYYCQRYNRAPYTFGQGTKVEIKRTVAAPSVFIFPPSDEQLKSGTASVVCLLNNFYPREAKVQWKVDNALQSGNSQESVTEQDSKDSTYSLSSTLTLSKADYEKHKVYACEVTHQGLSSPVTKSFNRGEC
notes: Undigested; also called anti-TNFα shielded antibody with IGF2-based masking domain; EAC196/EAC197
B5: TAVO192193 (antibody, human IgG1, kappa)
heavy: GIVEECCFRSCDLALLETYCAGGGGSIPVSLRSGGGGGSEVQLVESGGGLVQPGGSLRLSCAASGFDFADYAMHWVRQAPGKGLEWVSAITWNGGHTDYADSVKGRFTISRDNSKNTLYLQMNSLRAEDTAVYYCAKVSYLSTASSLDYWGQGTLVTVSSASTKGPSVFPLAPSSKSTSGGTAALGCLVKDYFPEPVTVSWNSGALTSGVHTFPAVLQSSGLYSLSSVVTVPSSSLGTQTYICNVNHKPSNTKVDKKVEPKSCDKTHTCPPCPAPPAAGPSVFLFPPKPKDTLMISRTPEVTCVVVDVSHEDPEVKFNWYVDGVEVHNAKTKPREEQYNSTYRVVSVLTVLHQDWLNGKEYKCKVSNKALPAPIEKTISKAKGQPREPQVYTLPPSRDELTKNQVSLTCLVKGFYPSDIAVEWESNGQPENNYKTTPPVLDSDGSFLLYSKLTVDKSRWQQGNVFSCSVLHEALHSHYTQKSLSLSPGK
light: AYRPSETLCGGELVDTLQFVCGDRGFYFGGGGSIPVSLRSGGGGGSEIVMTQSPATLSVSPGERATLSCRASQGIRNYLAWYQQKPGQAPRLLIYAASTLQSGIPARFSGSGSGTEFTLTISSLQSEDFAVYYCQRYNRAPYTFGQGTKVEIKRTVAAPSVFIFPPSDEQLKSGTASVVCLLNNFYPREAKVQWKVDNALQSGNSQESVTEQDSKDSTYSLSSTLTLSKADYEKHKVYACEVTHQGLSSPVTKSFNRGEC
notes: Undigested; also called anti-TNFα shielded antibody with IGF2-based masking domain; EAC192/EAC193
B6: TAVO198199 (antibody, human IgG1, kappa)
heavy: B5 heavy with I27L, P28S, V29G, S30R, L31S, R32D, S33N, G34H
light: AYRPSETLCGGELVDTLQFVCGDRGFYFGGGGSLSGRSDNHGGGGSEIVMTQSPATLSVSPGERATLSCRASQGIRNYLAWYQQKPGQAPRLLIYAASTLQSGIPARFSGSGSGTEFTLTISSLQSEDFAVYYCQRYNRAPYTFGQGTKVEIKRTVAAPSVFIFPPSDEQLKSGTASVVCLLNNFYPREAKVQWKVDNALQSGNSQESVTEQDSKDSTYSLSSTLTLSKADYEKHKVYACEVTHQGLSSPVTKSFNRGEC
notes: also called anti-TNFα shielded antibody with IGF2-based masking domain; EAC198/EAC199
B7: TAVO194195 (antibody, human IgG1, kappa)
heavy: B5 heavy with I27G, V29L, S30G, L31M, R32L, G34Q
light: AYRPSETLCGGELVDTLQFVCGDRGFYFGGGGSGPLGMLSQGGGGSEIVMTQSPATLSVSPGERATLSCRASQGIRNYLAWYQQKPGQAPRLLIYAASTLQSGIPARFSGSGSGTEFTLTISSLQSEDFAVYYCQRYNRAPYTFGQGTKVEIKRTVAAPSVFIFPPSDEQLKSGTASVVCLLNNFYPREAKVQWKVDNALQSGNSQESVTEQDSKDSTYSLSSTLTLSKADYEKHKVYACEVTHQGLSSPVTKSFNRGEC
notes: also called anti-TNFα shielded antibody with IGF2-based masking domain; EAC194/EAC195
B8: TAVO167127 (antibody, human IgG1, kappa)
heavy: EVQLVESGGGLVQPGGSLRLSCAASGFDFADYAMHWVRQAPGKGLEWVSAITWNGGHTDYADSVKGRFTISRDNSKNTLYLQMNSLRAEDTAVYYCAKVSYLSTASSLDYWGQGTLVTVSSASTKGPSVFPLAPSSKSTSGGTAALGCLVKDYFPEPVTVSWNSGALTSGVHTFPAVLQSSGLYSLSSVVTVPSSSLGTQTYICNVNHKPSNTKVDKKVEPKSCDKTHTCPPCPAPPAAGPSVFLFPPKPKDTLMISRTPEVTCVVVDVSHEDPEVKFNWYVDGVEVHNAKTKPREEQYNSTYRVVSVLTVLHQDWLNGKEYKCKVSNKALPAPIEKTISKAKGQPREPQVYTLPPSRDELTKNQVSLTCLVKGFYPSDIAVEWESNGQPENNYKTTPPVLDSDGSFLLYSKLTVDKSRWQQGNVFSCSVLHEALHSHYTQKSLSLSPGK
light: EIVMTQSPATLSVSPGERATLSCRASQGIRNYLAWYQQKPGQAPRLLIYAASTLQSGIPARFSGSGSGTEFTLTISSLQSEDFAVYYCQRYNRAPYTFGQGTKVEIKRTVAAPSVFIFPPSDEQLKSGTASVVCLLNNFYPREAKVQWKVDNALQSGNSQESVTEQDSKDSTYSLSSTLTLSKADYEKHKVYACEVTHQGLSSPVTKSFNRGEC
notes: Control antibody, ADA-H2X / ADA-L1 variable domains, IgG1 Fc with E233P, L234A, L235A, F405L, M428L, N434S and G236 deleted; also called active anti-TNFα antibody without the IGF2-based masking domain; unmasked anti-TNFα antibody
B9: TAVO271272 (antibody, human IgG1, kappa)
heavy: B1 heavy with V3L, G27P, P28L, L29G, G30L, V31A, R32G
light: not shown
notes: Undigested; ADA-H2X / ADA-L1; also called anti-TNFα shielded antibody with variant IGF2-based masking domain; EAC271/EAC272
B10: TAVO190197 (antibody, human IgG1, kappa)
heavy: B1 heavy with G27P, P28L, L29G, G30L, V31A, R32G
light: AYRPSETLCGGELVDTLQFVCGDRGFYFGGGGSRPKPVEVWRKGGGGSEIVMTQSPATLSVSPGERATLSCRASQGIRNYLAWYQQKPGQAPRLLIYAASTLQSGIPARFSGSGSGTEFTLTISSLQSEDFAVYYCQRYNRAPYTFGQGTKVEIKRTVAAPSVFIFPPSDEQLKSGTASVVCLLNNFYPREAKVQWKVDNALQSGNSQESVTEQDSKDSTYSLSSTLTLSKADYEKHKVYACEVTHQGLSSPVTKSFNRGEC
notes: Undigested; also called anti-TNFα shielded antibody with two different types of protease-cleavable linkers; undigested TAVO190197
B11: TAVO271585 (antibody, human IgG1, kappa)
heavy: B1 heavy with V3L, G27P, P28L, L29G, G30L, V31A, R32G
light: AYRPSETLCGGELVDTLQFVCGDRGFAFGGGGSPLGLAGGGGGSDIVMTQSPDSLAVSLGERATINCRASQGIRNYLAWYQQKPGQAPKLLIYAASTLQSGVPDRFSGSGSGTDFTLTISSLQAEDVAVYYCQRYNRAPYTFGQGTKVEIKRTVAAPSVFIFPPSDEQLKSGTASVVCLLNNFYPREAKVQWKVDNALQSGNSQESVTEQDSKDSTYSLSSTLTLSKADYEKHKVYACEVTHQGLSSPVTKSFNRGEC
notes: Variant IGF2 mask; ADA-H2X / ADA-L2; also called EAC271/EAC585
B12: TAVO579272 (antibody, human IgG1, kappa)
heavy: GILEECCFRSCDLALLETYCAGGGGSPLGLAGGGGGSEVQLVESGGVVVQPGGSLRLSCAASGFDFADYAMHWVRQAPGKGLEWVSAITWNGGHTDYADSVKGRFTISRDNSKNSLYLQMNSLRTEDTALYYCAKVSYLSTASSLDYWGQGTLVTVSSASTKGPSVFPLAPSSKSTSGGTAALGCLVKDYFPEPVTVSWNSGALTSGVHTFPAVLQSSGLYSLSSVVTVPSSSLGTQTYICNVNHKPSNTKVDKKVEPKSCDKTHTCPPCPAPPAAGPSVFLFPPKPKDTLMISRTPEVTCVVVDVSHEDPEVKFNWYVDGVEVHNAKTKPREEQYNSTYRVVSVLTVLHQDWLNGKEYKCKVSNKALPAPIEKTISKAKGQPREPQVYTLPPSRDELTKNQVSLTCLVKGFYPSDIAVEWESNGQPENNYKTTPPVLDSDGSFLLYSKLTVDKSRWQQGNVFSCSVLHEALHSHYTQKSLSLSPGK
light: not shown
notes: Variant IGF2 mask; ADA-H1X / ADA-L1; also called EAC579/EAC272
B13: TAVO578585 (antibody, human IgG1, kappa)
heavy: B12 heavy with D65T, A67D, G92S, T95I
light: B11 light
notes: Variant IGF2 mask; ADA-H1 / ADA-L2; also called EAC578/EAC585
B14: TAVO578272 (antibody, human IgG1, kappa)
heavy: B12 heavy with D65T, A67D, G92S, T95I
light: not shown
notes: Variant IGF2 mask; ADA-H1 / ADA-L1; also called EAC578/EAC272
B15: TAVO584272 (antibody, human IgG1, kappa)
heavy: B12 heavy with E38Q, V47G, S115T, T125A, L130V
light: not shown
notes: Variant IGF2 mask; ADA-H4X / ADA-L1; also called EAC584/EAC272
B16: TAVO579585 (antibody, human IgG1, kappa)
heavy: B12 heavy
light: B11 light
notes: Variant IGF2 mask; ADA-H1X / ADA-L2; also called EAC579/EAC585
B17: TAVO580585 (antibody, human IgG1, kappa)
heavy: B12 heavy with V47G, V48L, D65T, A67D, G92S, T95I, S115T, T125A, L130V
light: B11 light
notes: Variant IGF2 mask; ADA-H2 / ADA-L2; also called EAC580/EAC585
B18: TAVO584585 (antibody, human IgG1, kappa)
heavy: B12 heavy with E38Q, V47G, S115T, T125A, L130V
light: B11 light
notes: Variant IGF2 mask; ADA-H4X / ADA-L2; also called EAC584/EAC585
B19: TAVO580272 (antibody, human IgG1, kappa)
heavy: B12 heavy with V47G, V48L, D65T, A67D, G92S, T95I, S115T, T125A, L130V
light: not shown
notes: Variant IGF2 mask; ADA-H2 / ADA-L1; also called EAC580/EAC272
B20: TAVO190197 after digestion by both MMP2 and MMP3 (antibody)
heavy: B8 heavy
light: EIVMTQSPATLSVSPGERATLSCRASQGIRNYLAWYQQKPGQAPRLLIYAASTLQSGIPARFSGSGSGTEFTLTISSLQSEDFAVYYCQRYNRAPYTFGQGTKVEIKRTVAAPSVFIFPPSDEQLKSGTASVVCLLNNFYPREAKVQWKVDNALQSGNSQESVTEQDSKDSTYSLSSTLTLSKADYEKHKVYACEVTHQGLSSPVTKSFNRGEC
notes: Both chains cut; not shown: remnant of the MMP2-cleavable linker left after cleavage; remnant of the MMP3-cleavable linker left after cleavage

These binders were tested against T1, recombinant human TNFα (human, UniProt P01375 77-233) (assay: cell-based or functional assay).
T1 sequence (P01375 77-233 limits assumed): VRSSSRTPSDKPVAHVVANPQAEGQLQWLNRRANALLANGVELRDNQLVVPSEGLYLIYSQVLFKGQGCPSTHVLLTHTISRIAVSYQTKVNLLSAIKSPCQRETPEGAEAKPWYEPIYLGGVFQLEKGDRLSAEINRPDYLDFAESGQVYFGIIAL

HEK-Blue TNFα reporter assay: potency in blocking TNFα functional activity, fold lower than TAVO167127 [fold]	Binder
~50	B1
~50	B2
~50	B3
~50	B4
~50	B5
~50	B6
~50	B7

What follows are binders tested against T1, recombinant human TNFα (assay: ELISA, recombinant human TNFα coated at 1 µg/mL, HRP anti-human secondary).
Experimental: In this assay, 1 μg/mL recombinant human TNFα (R&D systems) was coated on an ELISA plate. Increasing concentrations of anti-TNFα shielded antibodies were applied on the plate and their binding to the recombinant human TNFα was detected by HRP-conjugated anti-human secondary antibody.

fold lower binding affinity than TAVO167127 [fold]	binding result	Binder
≥ 5		B1
≥ 5		B2
≥ 5		B3
≥ 5		B4
	binds	B8
≥ 5		B5
≥ 5		B6
≥ 5		B7

Each binder was assayed against T1, recombinant human TNFα (assay: ELISA on human TNFα).

fold more reduced binding affinity than TAVO190191 [fold]	binding result	Binder
8		B9
	binds	B10
	binds	B11
	binds	B12
	binds	B13
	binds	B14
	binds	B15
	binds	B16
	binds	B17
	binds	B18
	binds	B19
	binds	B20
